US7569660 (UNIVERSITY OF CHICAGO, dated 2009)

Biological target: the molecule itself

B1: NM R2E2 repeat expansion variant (other)
chain: MSDSNQGNNQQNYQQYSQNGNQQQGNNRYQGYQAYNAQAQPAGGYYQNYQGYSGYQQGGYQQYNPQGGYQQYNPQGGYQQYNPDAGYQQQYNPQGGYQQYNPQGGYQQQFNPQGGRGNYKNFNYNNNLQGYQAGFQPQSQGMSLNDFQKQQKQAAPKPKKTLKLVSSSGIKLANATKKVGTKPAESDKKEEEKSAETKEPTKEPTKVEEPVKKEEKPVQTEEKTEEKSELPKVEDLKISESTHNTNNANVTSADALIKEQEEEVDDEVVND
In the case of B1, the “rate of conversion to a β-sheet rich structure relative to wild-type NM” value is reported as roughly 2 fold.
